Measured values from article PMC9290910, “Neuropilin‐1 is required for endothelial cell adhesion to soluble vascular endothelial growth factor receptor 1” (The Febs Journal, 2021).

Columns and labels:
NRP‐1 [1] = assay: SPR, α5β1 integrin binding to immobilized NRP‐1; design: species or system human; conditions: NRP‐1 immobilized, α5β1 integrin 20-500 nM
Procedure: SPR analysis of NRP‐1 interaction with α5β1 integrin or semaphorin 3A, in the absence or presence of Flt2‐11 peptide or ‘scrambled’ Flt2‐11. NRP‐1 is immobilized on sensor chip. (A) α5β1 integrin is injected at different concentrations (from bottom to top: 20 nM, cyan; 40 nM, red; 100 nM, green; 200 nM, blue; and 500 nM, black). […] (B) α5β1 integrin is injected at 200 nM concentration together with either Flt2‐11 peptide or scrambled Flt2‐11 peptide at different concentrations (no peptides, black; Flt2‐11 peptide […] and 20 μM, blue and cyan, respectively; scrambled Flt2‐11 peptide at 2 μM and 20 μM, red and purple, respectively). (C) Semaphorin 3A is injected at different concentrations (from bottom to top: 20 nM, cyan; 30 nM, red; 50 nM, green; 200 nM, blue; and 500 nM, black). […] (D) Semaphorin 3A is injected at 200 nM, and peptide Flt2‐11 at different concentrations (no peptides, black; Flt2‐11 peptide 1 μM and 10 μM blue and cyan, respectively; scrambled Flt2‐11 peptide 50 μM, red).
(§1) SPR experiments were carried out using a BIACORE X system (Biacore AB, Uppsala, Sweden). […] The reaction was carried out in 20 mM sodium acetate at pH 5.0, which is about 2 points below the theoretical NRP‐1 isoelectric point calculated using the program pI‐tool. […]
RU express the mass concentration‐dependent changes in the observed SPR signal, that is, the refractive index on the sensor chip surface. Changes in this signal are determined by the interaction between the immobilized protein (i.e., either NRP‐1 or VEGFR‐1) with the analyte protein (i.e., VEGFR‐1/Fc, α5β1 integrin or semaphorin 3A). […] Global fitting analyses of association and dissociation data for all ligand concentrations were carried out using BIAEVALUATION software 3.0 (Biacore, Uppsala, Sweden), which allows the ratio between association and dissociation constants (k on/k off) to be accurately determined. […]

sVEGFR‐1 = assay: SPR, α5β1 integrin binding to immobilized sVEGFR‐1; design: species or system human; conditions: sVEGFR‐1 immobilized, α5β1 integrin 80 nM-1 μM
Procedure: Fig. 7 sVEGFR‐1/α5β1 integrin interaction. (A) SPR analysis of the interaction between sVEGFR‐1 and α5β1 integrin. sVEGFR‐1 is immobilized on sensor chips and α5β1 integrin is injected at different concentrations (from bottom to top: 80 nM, cyan; 160 nM, red; 350 nM, green; 600 nM, blue; and 1 μM, black). […] (B) Secondary structure representation of the 3D structure of VEGFR‐1 Ig‐like domain II. β‐strands are represented by arrows and labelled from A to H; loops are shown as tubular ribbons; the N‐ and C‐terminal ends of the domain are indicated by labels. Colour coding: peptide 12 (interacting with α5β1 integrin) is blue; Flt2‐11 peptide (interacting with NRP‐1) is yellow in the five‐residue NITVT region corresponding to the Flt2‐5 peptide (see text), and green in the remaining six‐residues region; the rest of the domain is magenta. (C) Proposed mechanism of action of Flt2‐11 peptide. Left: Light blue arrows indicate the high‐affinity interactions: (i) between NRP‐1 (yellow) and α5β1 integrin (black) on the EC membrane; and (ii) between NRP‐1 on the EC membrane and the sVEGFR‐1 substrate (green). The dark blue arrow indicates the low‐affinity interaction between α5β1 integrin on the EC membrane and the sVEGFR‐1 substrate. The low‐affinity interaction is stabilized by the two high‐affinity interactions, and the angiogenic stimulus is triggered. Centre: The Flt2‐11 peptide inhibits the high‐affinity interaction between NRP‐1 on the EC membrane and the sVEGFR‐1 substrate. The low‐affinity interaction between α5β1 integrin on ECs and the sVEGFR‐1 substrate is not sufficiently stable to trigger the angiogenic stimulus that starts upon integrin engagement. […]
as §1

Recombinant human NRP‐1 = target: T1, Recombinant human NRP‐1 (human, UniProt O14786 22-856); assay: SPR; BIACORE X, CM5; NRP-1 immobilised by amine coupling; analyte in HEPES-buffered saline (10 mM HEPES pH 7.4, 150 mM NaCl, 0.005% P20); global 1:1 Langmuir fit; conditions: both partners purified
T1 construct: Neuropilin-1, human, recombinant soluble protein; see the vendor's datasheet (as far as I recall an extracellular fragment with a C-terminal His tag); also called Neuropilin‐1; soluble NRP‐1; source: bought: R&D Systems (3870‐N1)
T1 sequence (looked up): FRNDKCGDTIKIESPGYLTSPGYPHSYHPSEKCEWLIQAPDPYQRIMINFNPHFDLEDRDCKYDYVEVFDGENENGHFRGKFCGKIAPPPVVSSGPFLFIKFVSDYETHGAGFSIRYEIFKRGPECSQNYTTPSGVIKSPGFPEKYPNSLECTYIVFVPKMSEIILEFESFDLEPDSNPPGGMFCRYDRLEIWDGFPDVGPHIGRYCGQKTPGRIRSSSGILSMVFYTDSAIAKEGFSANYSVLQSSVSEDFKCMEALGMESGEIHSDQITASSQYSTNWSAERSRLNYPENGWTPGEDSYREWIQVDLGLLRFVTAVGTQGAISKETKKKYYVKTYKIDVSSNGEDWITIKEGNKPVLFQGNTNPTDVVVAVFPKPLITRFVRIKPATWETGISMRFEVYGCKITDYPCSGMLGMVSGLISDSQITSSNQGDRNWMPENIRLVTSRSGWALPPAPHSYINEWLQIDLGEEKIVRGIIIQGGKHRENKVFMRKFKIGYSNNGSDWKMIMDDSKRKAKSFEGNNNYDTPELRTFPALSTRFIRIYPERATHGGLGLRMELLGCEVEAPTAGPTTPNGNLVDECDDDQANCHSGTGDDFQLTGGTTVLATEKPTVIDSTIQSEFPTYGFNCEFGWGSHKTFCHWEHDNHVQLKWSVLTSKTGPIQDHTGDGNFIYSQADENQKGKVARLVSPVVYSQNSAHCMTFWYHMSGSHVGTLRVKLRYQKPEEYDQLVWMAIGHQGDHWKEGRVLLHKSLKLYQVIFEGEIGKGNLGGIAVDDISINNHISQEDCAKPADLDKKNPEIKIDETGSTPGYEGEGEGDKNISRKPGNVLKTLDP

Purified α5β1 integrin = target: T2, Purified α5β1 integrin (UniProt P08648 42-1049; P05556 21-728); assay: SPR; BIACORE X, CM5; VEGFR-1/Fc captured (about 200 RU) on amine-coupled protein A; α5β1 integrin injected; HEPES-buffered saline (10 mM HEPES pH 7.4, 150 mM NaCl, 0.005% P20); 1:1 Langmuir fit; conditions: both partners purified
T2 construct: integrin alpha-5 subunit; integrin beta-1 subunit; As far as I recall this product is purified from human tissue; also called integrin α5β1; source: bought: Merck Millipore (CC1052), purified, octyl‐β‐D‐glucopyranoside formulation

NRP‐1 [2] = assay: SPR, semaphorin 3A binding to immobilized NRP‐1; design: species or system human; conditions: NRP‐1 immobilized, semaphorin 3A 20-500 nM
Procedure: SPR analysis of NRP‐1 interaction with α5β1 integrin or semaphorin 3A, in the absence or presence of Flt2‐11 peptide or ‘scrambled’ Flt2‐11. NRP‐1 is immobilized on sensor chip. (A) α5β1 integrin is injected at different concentrations (from bottom to top: 20 nM, cyan; 40 nM, red; 100 nM, green; 200 nM, blue; and 500 nM, black). […] (B) α5β1 integrin is injected at 200 nM concentration together with either Flt2‐11 peptide or scrambled Flt2‐11 peptide at different concentrations (no peptides, black; Flt2‐11 peptide […] and 20 μM, blue and cyan, respectively; scrambled Flt2‐11 peptide at 2 μM and 20 μM, red and purple, respectively). (C) Semaphorin 3A is injected at different concentrations (from bottom to top: 20 nM, cyan; 30 nM, red; 50 nM, green; 200 nM, blue; and 500 nM, black). […]
as §1
RU express the mass concentration‐dependent changes in the observed SPR signal, that is, the refractive index on the sensor chip surface. Changes in this signal are determined by the interaction between the immobilized protein (i.e., either NRP‐1 or VEGFR‐1) with the analyte protein (i.e., VEGFR‐1/Fc, α5β1 integrin or semaphorin 3A). […]

T2 sequence (P08648 42-1049, chain 1 of 2): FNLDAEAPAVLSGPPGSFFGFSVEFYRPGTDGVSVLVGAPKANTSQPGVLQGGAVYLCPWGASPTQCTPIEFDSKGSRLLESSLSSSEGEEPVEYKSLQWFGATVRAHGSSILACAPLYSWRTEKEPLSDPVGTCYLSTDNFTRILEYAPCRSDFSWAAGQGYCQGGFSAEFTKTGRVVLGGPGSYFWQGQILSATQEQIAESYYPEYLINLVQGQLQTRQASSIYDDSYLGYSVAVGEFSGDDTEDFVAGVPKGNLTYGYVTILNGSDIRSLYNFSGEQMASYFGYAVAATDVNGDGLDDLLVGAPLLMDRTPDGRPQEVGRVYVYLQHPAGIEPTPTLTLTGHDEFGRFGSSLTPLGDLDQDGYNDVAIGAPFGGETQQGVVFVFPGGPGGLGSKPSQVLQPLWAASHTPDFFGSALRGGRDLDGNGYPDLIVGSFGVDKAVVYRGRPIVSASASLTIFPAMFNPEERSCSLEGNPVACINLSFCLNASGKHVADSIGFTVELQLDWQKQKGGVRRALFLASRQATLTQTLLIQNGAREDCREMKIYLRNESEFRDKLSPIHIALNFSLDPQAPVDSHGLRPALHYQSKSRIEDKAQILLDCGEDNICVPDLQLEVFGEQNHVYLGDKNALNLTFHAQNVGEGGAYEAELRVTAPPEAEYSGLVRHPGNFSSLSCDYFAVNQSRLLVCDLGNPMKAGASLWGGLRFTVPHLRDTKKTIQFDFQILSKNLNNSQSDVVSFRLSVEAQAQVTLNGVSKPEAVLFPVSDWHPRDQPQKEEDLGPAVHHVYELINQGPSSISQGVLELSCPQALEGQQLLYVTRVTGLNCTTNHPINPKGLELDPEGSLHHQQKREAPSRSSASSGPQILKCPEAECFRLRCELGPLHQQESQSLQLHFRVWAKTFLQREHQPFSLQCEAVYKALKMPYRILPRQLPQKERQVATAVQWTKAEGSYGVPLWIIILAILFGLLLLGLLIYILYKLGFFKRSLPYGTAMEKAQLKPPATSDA
T2 sequence (P05556 21-728, chain 2 of 2): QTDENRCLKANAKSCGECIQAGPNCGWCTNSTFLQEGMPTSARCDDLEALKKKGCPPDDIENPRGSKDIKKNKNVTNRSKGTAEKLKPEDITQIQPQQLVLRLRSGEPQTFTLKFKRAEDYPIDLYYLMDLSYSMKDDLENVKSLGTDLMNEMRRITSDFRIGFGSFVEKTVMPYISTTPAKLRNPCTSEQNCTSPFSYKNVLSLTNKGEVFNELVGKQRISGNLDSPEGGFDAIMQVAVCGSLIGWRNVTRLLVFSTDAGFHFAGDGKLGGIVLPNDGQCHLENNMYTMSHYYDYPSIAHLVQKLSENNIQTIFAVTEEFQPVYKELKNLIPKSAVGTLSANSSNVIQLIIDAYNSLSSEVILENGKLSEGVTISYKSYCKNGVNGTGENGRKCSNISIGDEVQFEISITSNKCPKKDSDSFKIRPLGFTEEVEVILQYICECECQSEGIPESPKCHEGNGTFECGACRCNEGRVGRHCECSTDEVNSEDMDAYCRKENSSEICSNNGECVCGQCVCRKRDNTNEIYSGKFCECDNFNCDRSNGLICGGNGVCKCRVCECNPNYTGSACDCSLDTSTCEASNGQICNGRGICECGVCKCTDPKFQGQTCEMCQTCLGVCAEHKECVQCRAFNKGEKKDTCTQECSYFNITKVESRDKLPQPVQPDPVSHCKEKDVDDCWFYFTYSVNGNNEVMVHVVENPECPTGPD

Question: With “α5β1 integrin: Purified α5β1 integrin (CC1052), Merck Millipore” as the molecule, how does the k off (NRP‐1 [1]) read?
Answer: 0.00029 s⁻¹

Question: What about the k on (NRP‐1 [1]) of the same molecule?
Answer: 21000 M⁻¹ s⁻¹

Question: And the Kd (NRP‐1 [1]; read-out: K D, NRP‐1/α5β1 integrin)?
Answer: 14 ± 4 nM

Question: What about the k off (sVEGFR‐1) of the same molecule?
Answer: 0.00029 s⁻¹

Question: What about the k on (sVEGFR‐1) of the same molecule?
Answer: 1500 M⁻¹ s⁻¹

Question: And the Kd (sVEGFR‐1; read-out: K D, sVEGFR‐1/α5β1 integrin)?
Answer: 195 ± 40 nM

B1: Recombinant human VEGFR‐1/Fc (Fc fusion, UniProt P17948 27-758, looked up)
chain: SKLKDPELSLKGTQHIMQAGQTLHLQCRGEAAHKWSLPEMVSKESERLSITKSACGRNGKQFCSTLTLNTAQANHTGFYSCKYLAVPTSKKKETESAIYIFISDTGRPFVEMYSEIPEIIHMTEGRELVIPCRVTSPNITVTLKKFPLDTLIPDGKRIIWDSRKGFIISNATYKEIGLLTCEATVNGHLYKTNYLTHRQTNTIIDVQISTPRPVKLLRGHTLVLNCTATTPLNTRVQMTWSYPDEKNKRASVRRRIDQSNSHANIFYSVLTIDKMQNKDKGLYTCRVRSGPSFKSVNTSVHIYDKAFITVKHRKQQVLETVAGKRSYRLSMKVKAFPSPEVVWLKDGLPATEKSARYLTRGYSLIIKDVTEEDAGNYTILLSIKQSNVFKNLTATLIVNVKPQIYEKAVSSFPDPALYPLGSRQILTCTAYGIPQPTIKWFWHPCNHNHSEARCDFCSNNEESFILDADSNMGNRIESITQRMAIIEGKNKMASTLVVADSRISGIYICIASNKVGTVGRNISFYITDVPNGFHVNLEKMPTEGEDLKLSCTVNKFLYRDVTWILLRTVNNRTMHYSISKQKMAITKEHSITLNLTIMNVSLQDSGTYACRARNVYTGEEILQKKEITIRDQEAPYLLRNLSDHTVAISSSTTLDCHANGVPEPQITWFKNNHKIQQEPGIILGPGSSTLFIERVTEEDEGVYHCKATNQKGSVESSAYLTVQGTSDKSNLE
notes: VEGFR-1 (Flt-1), human, recombinant Fc chimera; also called sVEGFR‐1; sVEGFR‐1/Fc; source: bought: R&D Systems (321‐FL‐050)
Question: B1 was tested. Which Kd (Recombinant human NRP‐1) did it give?
Answer: 25 ± 4 nM

Question: And the koff (Recombinant human NRP‐1)?
Answer: 0.0003 s⁻¹

Question: And the kon (Recombinant human NRP‐1)?
Answer: 12000 M⁻¹ s⁻¹

Question: What about the Kd (Purified α5β1 integrin) of the same molecule?
Answer: 195 ± 40 nM

Question: What about the koff (Purified α5β1 integrin) of the same molecule?
Answer: 0.00029 s⁻¹

Question: And the kon (Purified α5β1 integrin)?
Answer: 1500 M⁻¹ s⁻¹

B2: semaphorin 3A (ligand)
chain: NYQNGKNNVPRLKLSYKEMLESNNVITFNGLANSSSYHTFLLDEERSRLYVGAKDHIFSFDLVNIKDFQKIVWPVSYTRRDECKWAGKDILKECANFIKVLKAYNQTHLYACGTGAFHPICTYIEIGHHPEDNIFKLENSHFENGRGKSPYDPKLLTASLLIDGELYSGTAADFMGRDFAIFRTLGHHHPIRTEQHDSRWLNDPKFISAHLISESDNPEDDKVYFFFRENAIDGEHSGKATHARIGQICKNDFGGHRSLVNKWTTFLKARLICSVPGPNGIDTHFDELQDVFLMNFKDPKNPVVYGVFTTSSNIFKGSAVCMYSMSDVRRVFLGPYAHRDGPNYQWVPYQGRVPYPRPGTCPSKTFGGFDSTKDLPDDVITFARSHPAMYNPVFPMNNRPIVIKTDVNYQFTQIVVDRVDAEDGQYDVMFIGTDVGTVLKVVSIPKETWYDLEEVLLEEMTVFREPTAISAMELSTKQQQLYIGSTAGVAQLPLHRCDIYGKACAECCLARDPYCAWDGSACSRYFPTAKRRTRRQDIRNGDPLTHCSDLHHDNHHGHSPEERIIYGVENSSTFLECSPKSQRALVYWQFQRRNEERKEEIRVDDHIIRTDQGLLLRSLQQKDSGNYLCHAVEHGFIQTLLKVTLEVIDTEHLEELLHKDDDGDGSKTKEMSNSMTPSQKVWYRDFMQLINHPNLNTMDEFCEQVWKRDRKQRRQRPGHTPGNSNKWKHLQENKKGRNRRTHEFERAPRSV
Question: For B2, which k off (NRP‐1 [2]) is on record?
Answer: 9e-05 s⁻¹

Question: What about the k on (NRP‐1 [2]) of the same molecule?
Answer: 3700 M⁻¹ s⁻¹

Question: What about the Kd (Recombinant human NRP‐1) of the same molecule?
Answer: 24 ± 6 nM

Question: What about the koff (Recombinant human NRP‐1) of the same molecule?
Answer: 9e-05 s⁻¹

Question: What about the kon (Recombinant human NRP‐1) of the same molecule?
Answer: 3700 M⁻¹ s⁻¹
